# Measured values: publication PMC8860611
# Molecular target: HIV-1 CA A14C/E45C/W184A/M185A (pET11a-CA (A14C, E45C, W184A and M185A)), assembled into soluble cross-linked hexamers (HIV-1)
# Assay: cross-linking
substance,measurement,value
"HIV-1 CA A14C/E45C/W184A/M185A (pET11a-CA (A14C, E45C, W184A and M185A)), assembled into soluble cross-linked hexamers (natural protein)",stoichiometry N,6
